In US20110306057A1:

The substances below were run against endogenous RalA (human) (UniProt P11233) (assay: cell-based or functional assay).
endogenous RalA (human), sequence (P11233 1-203 limits assumed): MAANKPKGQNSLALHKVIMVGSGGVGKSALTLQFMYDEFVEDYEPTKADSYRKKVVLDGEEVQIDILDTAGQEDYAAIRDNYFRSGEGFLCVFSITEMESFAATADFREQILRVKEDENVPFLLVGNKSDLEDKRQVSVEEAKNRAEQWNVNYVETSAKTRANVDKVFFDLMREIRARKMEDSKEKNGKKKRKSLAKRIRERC

cancer-derived FLAG-tagged PP2A Aβ mutant G8R, sequence (P30154 other isoform, or with tags, fused parts or gaps limits assumed, stated change not applied): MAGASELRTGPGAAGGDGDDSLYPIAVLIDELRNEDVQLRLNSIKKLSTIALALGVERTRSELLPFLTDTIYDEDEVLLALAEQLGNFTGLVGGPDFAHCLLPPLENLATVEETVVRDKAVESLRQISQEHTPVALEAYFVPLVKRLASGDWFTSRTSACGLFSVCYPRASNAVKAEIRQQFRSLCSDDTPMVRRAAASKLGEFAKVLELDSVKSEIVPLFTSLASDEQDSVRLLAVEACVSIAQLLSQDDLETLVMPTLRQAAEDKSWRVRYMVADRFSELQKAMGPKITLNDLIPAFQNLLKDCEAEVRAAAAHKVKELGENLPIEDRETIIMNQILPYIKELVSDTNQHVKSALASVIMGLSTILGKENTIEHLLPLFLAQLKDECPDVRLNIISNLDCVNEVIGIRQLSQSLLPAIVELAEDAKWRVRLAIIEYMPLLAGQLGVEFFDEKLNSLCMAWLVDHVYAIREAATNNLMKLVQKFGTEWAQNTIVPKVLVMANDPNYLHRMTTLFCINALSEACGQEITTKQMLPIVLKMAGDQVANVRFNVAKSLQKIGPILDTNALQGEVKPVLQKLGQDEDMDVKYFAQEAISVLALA
wild type (WT) FLAG epitope-tagged version of PP2A Aβ, sequence (P30154 whole entry): as the sequence (P30154 other isoform, or with tags, fused parts or gaps limits assumed, stated change not applied) above, with R8G counted along it

Row | GTP-bound RalA levels (RalA activation assay, RalBP1 agarose pull-down) [fold] | Substance
1 | 4.5 | endogenous PP2A Aβ (from UniProt P30154 2-601)

Each substance was assayed against PP2A regulatory subunit B56δ (human (endogenous in human HEK TER cells)) (UniProt Q14738) (assay: anti-FLAG co-IP from HEK TER cells, immunoblot, densitometry; +++ >90%, ++ 50-90%, + <50%).
PP2A regulatory subunit B56δ (human (endogenous in human HEK TER cells)), sequence (Q14738 whole entry, stated change not applied): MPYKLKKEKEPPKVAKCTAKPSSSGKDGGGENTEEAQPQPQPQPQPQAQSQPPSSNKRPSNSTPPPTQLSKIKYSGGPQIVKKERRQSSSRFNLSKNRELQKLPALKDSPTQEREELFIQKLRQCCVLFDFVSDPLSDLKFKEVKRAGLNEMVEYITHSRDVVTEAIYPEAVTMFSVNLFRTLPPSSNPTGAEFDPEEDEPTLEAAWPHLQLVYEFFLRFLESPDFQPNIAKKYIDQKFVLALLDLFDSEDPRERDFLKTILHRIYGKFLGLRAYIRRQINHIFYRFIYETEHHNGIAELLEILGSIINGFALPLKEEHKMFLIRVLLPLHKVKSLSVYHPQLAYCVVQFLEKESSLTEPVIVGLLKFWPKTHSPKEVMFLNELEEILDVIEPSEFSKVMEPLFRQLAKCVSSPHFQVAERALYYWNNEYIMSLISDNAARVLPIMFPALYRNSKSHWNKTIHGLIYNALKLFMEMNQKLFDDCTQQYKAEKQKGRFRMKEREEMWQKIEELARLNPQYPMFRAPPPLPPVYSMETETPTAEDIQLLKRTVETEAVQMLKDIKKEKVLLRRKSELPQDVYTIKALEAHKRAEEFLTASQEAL

Row | binding level (percent, co-immunoprecipitation densitometry) [%] | Substance
2 | 50 to 90 | cancer-derived FLAG-tagged PP2A Aβ mutant P65S (from UniProt P30154 1-601)
3 | < 50 | cancer-derived FLAG-tagged PP2A Aβ mutant G8R (from UniProt P30154 1-601)
4 | > 90 | cancer-derived FLAG-tagged PP2A Aβ mutant D504G (from UniProt P30154 1-601)
5 | 50 to 90 | cancer-derived FLAG-tagged PP2A Aβ mutant K343E (from UniProt P30154 1-601)
6 | > 90 | wild type (WT) FLAG epitope-tagged version of PP2A Aβ (from UniProt P30154 1-601)
